Key:
hRAGE-Fc [1] = target: T1, hRAGE-Fc (human, UniProt Q15109 23-342, biotin label in the selections and HTRF assays); assay: IC50 of parental M4 scFv over IC50 of clone, HTRF competition
T1 construct: extracellular domain; also called biotin labeled hRAGE-Fc; Biotin-labeled RAGE-Fc; not shown: Fc part
Description: (§1) Increases in binding to RAGE antigen were detected with the aid of a competition assay using parental XT-M4 antibody. Both phage display and ribosome display libraries were selected for affinity improved variants by incubating with biotin labeled hRAGE-Fc, recovering binding clones using streptavidin magnetic beads and washing away non binding variants. Sequential rounds of selection were carried on decreasing antigen concentrations to drive the preferential recovery of higher affinity variants. Clones recovered after selection were subsequently screening for improved binding to hRAGE-Fc using HTRF. This is an assay that measures the decrease in fluorescence upon binding of parental europium cryptate-labeled XT-M4 to RAGE in the presence of competing test scFv antibodies. In these assays, periplasmic preparations of scFv were prepared from bacterial cultures and added in increasing concentrations to a combination of parental antibody and antigen. The ability of the scFV to compete with parental XT-M4 antibody to bind to Biotin-labeled RAGE-Fc was determined. In the presence of avidin-XL665 complex labeled XT-M4 bound to biotinylated RAGE-FC was detected by Fluorescence. Increasing amounts of scFv that competed with the XT-M4 for binding to biotinylated-RAGE-Fc was detected as a decrease in fluorescence. A sequential process of screening was used to focus in on a smaller number of clones with the greatest competition in HTRF assay

hRAGE-Fc [2] = target: T1, hRAGE-Fc; assay: HTRF competition, scFv vs labelled parental XT-M4 (competitor) on hRAGE
Description: as §1

hRAGE-Fc [3] = target: T1, hRAGE-Fc; assay: HTRF competition, scFv vs labelled parental XT-M4 (competitor) on biotin hRAGE-Fc
Description: as §1

T1 sequence (Q15109 23-342): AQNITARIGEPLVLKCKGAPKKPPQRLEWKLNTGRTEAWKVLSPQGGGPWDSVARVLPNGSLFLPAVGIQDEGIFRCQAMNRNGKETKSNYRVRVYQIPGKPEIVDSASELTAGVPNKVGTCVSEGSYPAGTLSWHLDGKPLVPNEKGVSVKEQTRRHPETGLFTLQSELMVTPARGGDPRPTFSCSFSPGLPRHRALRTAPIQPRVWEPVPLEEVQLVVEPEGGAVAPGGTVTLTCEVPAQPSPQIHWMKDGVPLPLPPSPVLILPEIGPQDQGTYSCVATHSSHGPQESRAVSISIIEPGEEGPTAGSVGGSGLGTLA

| Fold gain scFv (hRAGE) (hRAGE-Fc [1]) [fold] | IC50 (hRAGE-Fc [2]) [nM] | IC50 (hRAGE-Fc [3]) [nM] | Binder |
| --- | --- | --- | --- |
| 70 | 0.47 | 0.474 | 3A6 scFv (scFv) scFv: DIQMTQSPSSLSASVGDRVTITCRASQDVGIYVNWFQQKPGKAPRRLIYRATNLADGVPSRFSGSRSGTDFTLTISSLQPEDFATYYCLEFDEHPLTFGGGTKVEIKDGGGSGGGGSGGGGSSEVQLVESGGGLVQPGGSLRLSCAASGFTFNNYWMTWVRQAPGKGLEWVASIDNSGDNTYYPDSVKDRFTISRDNAKNSLYLQMNSLRAEDTAVYYCARGGDILVSLDVWGQGTLVTVSS |
| – | – | 3 | 3D5 scFv (scFv) scFv: DIQMTQSPSSLSASVGDRVTITCRASQDVGIYVNWFQQKPGKAPRRLIYRATNLADGVPSRFSGSRSGTDFTLTISSLQPEDFATYYCLEFDEHPLTFGGGTKVEIKDGGGSGGGGSGGGGSSEVQLVESGGGLVQPGGSLRLSCAASGFTFNNYWMTWVRQAPGKGLEWVASIDNSGDNTYYPDSVKDRFTISRDNAKNSLYLQMNSLRAEDTAVYYCARGGDIKVGLDLWGQGTLVTVSS |
| – | – | 9.03 | 6C11 scFv (scFv) scFv: DIQMTQSPSSLSASVGDRVTITCRASQDVGIYVNWFQQKPGKAPRRLIYRATNLADGVPSRFSGSRSGTDFTLTISSLQPEDFATYYCLQYDAHPLTFGGGTKVEIKDGGGSGGGGSGGGGSSEVQLVESGGGLVQPGGSLRLSCAASGFTFNNYWMTWVRQAPGKGLEWVASIDNSGDNTYYPDSVKDRFTISRDNAKNSLYLQMNSLRAEDTAVYYCARGGDITTGFDYWGQGTLVTVSS |
| – | – | 2.92 | 3D6 scFv (scFv) scFv: DIQMTQSPSSLSASVGDRVTITCRASQDVGIYVNWFQQKPGKAPRRLIYRATNLADGVPSRFSGSRSGTDFTLTISSLQPEDFATYYCLEFDEHPLTFGGGTKVEIKDGGGSGGGGSGGGGSSEVQLVESGGGLVQPGGSLRLSCAASGFTFNNYWMTWVRQAPGKGLEWVASIDNSGDNTYYPDSVKDRFTISRDNAKNSLYLQMNSLRAEDTAVYYCARGGDIRVMLDLWGQGTLVTVSS |
| – | – | 1.44 | 3G3 scFv (scFv) scFv: DIQMTQSPSSLSASVGDRVTITCRASQDVGIYVNWFQQKPGKAPRRLIYRATNLADGVPSRFSGSRSGTDFTLTISSLQPEDFATYYCLEFDEHPLTFGGGTKVEIKDGGGSGGGGSGGGGSSEVQLVESGGGLVQPGGSLRLSCAASGFTFNNYWMTWVRQAPGKGLEWVASIDNSGDNTYYPDSVKDRFTISRDNAKNSLYLQMNSLRAEDTAVYYCARGGDIKVSLDHWGQGTLVTVSS |
| 26 | 1.27 | 1.27 | 3D2 scFv (scFv) scFv: DIQMTQSPSSLSASVGDRVTITCRASQDVGIYVNWFQQKPGKAPRRLIYRATNLADGVPSRFSGSRSGTDFTLTISSLQPEDFATYYCLEFDEHPLTFGGGTKVEIKDGGGSGGGGSGGGGSSEVQLVESGGGLVQPGGSLRLSCAASGFTFNNYWMTWVRQAPGKGLEWVASIDNSGDNTYYPDSVKDRFTISRDNAKNSLYLQMNSLRAEDTAVYYCARGGDIRVSLDHWGQGTLVTVSS |
| 37.9 | 0.87 | 0.87 | 3G5 scFv (scFv) scFv: DIQMTQSPSSLSASVGDRVTITCRASQDVGIYVNWFQQKPGKAPRRLIYRATNLADGVPSRFSGSRSGTDFTLTISSLQPEDFATYYCLEFDEHPLTFGGGTKVEIKDGGGSGGGGSGGGGSSEVQLVESGGGLVQPGGSLRLSCAASGFTFNNYWMTWVRQAPGKGLEWVASIDNSGDNTYYPDSVKDRFTISRDNAKNSLYLQMNSLRAEDTAVYYCARGGDILDSLPYWGQGTLVTVSS |
| – | – | 2.25 | 6E5 scFv (scFv) scFv: DIQMTQSPSSLSASVGDRVTITCRASQDVGIYVNWFQQKPGKAPRRLIYRATNLADGVPSRFSGSRSGTDFTLTISSLQPEDFATYYCLEFDEHPLTFGGGTKVEIKDGGGSGGGGSGGGGSSEVQLVESGGGLVQPGGSLRLSCAASGFTFNNYWMTWVRQAPGKGLEWVASIDNSGDNTYYPDSVKDRFTISRDNAKNSLYLQMNSLRAEDTAVYYCARGGDIRVMLDVWGQGTLVTVSS |
| – | – | 1.26 | 3C6 scFv (scFv) scFv: DIQMTQSPSSLSASVGDRVTITCRASQDVGIYVNWFQQKPGKAPRRLIYRATNLADGVPSRFSGSRSGTDFTLTISSLQPEDFATYYCLEFDEHPLTFGGGTKVEIKDGGGSGGGGSGGGGSSEVQLVESGGGLVQPGGSLRLSCAASGFTFNNYWMTWVRQAPGKGLEWVASIDNSGDNTYYPDSVKDRFTISRDNAKNSLYLQMNSLRAEDTAVYYCARGGDIVVGLDHWGQGTLVTVSS |
| – | – | 7.38 | 6C10 scFv (scFv) scFv: DIQMTQSPSSLSASVGDRVTITCRASQDVGIYVNWFQQKPGKAPRRLIYRATNLADGVPSRFSGSRSGTDFTLTISSLQPEDFATYYCLQFDEHPLTFGGGTKVEIKDGGGSGGGGSGGGGSSEVQLVESGGGLVQPGGSLRLSCAASGFTFNNYWMTWVRQAPGKGLEWVASIDNSGDNTYYPDSVKDRFTISRDNAKNSLYLQMNSLRAEDTAVYYCARGGDITTGFDYWGQGTLVTVSS |
| 35.8 | 0.92 | 0.917 | 3B2 scFv (scFv) scFv: DIQMTQSPSSLSASVGDRVTITCRASQDVGIYVNWFQQKPGKAPRRLIYRATNLADGVPSRFSGSRSGTDFTLTISSLQPEDFATYYCLEFDEHPLTFGGGTKVEIKDGGGSGGGGSGGGGSSEVQLVESGGGLVQPGGSLRLSCAASGFTFNNYWMTWVRQAPGKGLEWVASIDNSGDNTYYPDSVKDRFTISRDNAKNSLYLQMNSLRAEDTAVYYCARGGDILVGLDYWGQGTLVTVSS |
| – | – | 10.6 | 3B9 scFv (scFv) scFv: DIQMTQSPSSLSASVGDRVTITCRASQDVGIYVNWFQQKPGKAPRRLIYRATNLADGVPSRFSGSRSGTDFTLTISSLQPEDFATYYCLQFDNHPLTFGGGTKVEIKDGGGSGGGGSGGGGSSEVQLVESGGGLVQPGGSLRLSCAASGFTFNNYWMTWVRQAPGKGLEWVASIDNSGDNTYYPDSVKDRFTISRDNAKNSLYLQMNSLRAEDTAVYYCARGGDITTGFDYWGQGTLVTVSS |
| – | – | 8.08 | 3G8 scFv (scFv) scFv: DIQMTQSPSSLSASVGDRVTITCRASQDVGIYVNWFQQKPGKAPRRLIYRATNLADGVPSRFSGSRSGTDFTLTISSLQPEDFATYYCLQYDAHPLTFGGGTKVEIKDGGGSGGGGSGGGGSSEVQLVESGGGLVQPGGSLRLSCAASGFTFNNYWMTWVRQAPGKGLEWVASIDNSGDNTYYPDSVKDRFTISRDNAKNSLYLQMNSLRAEDTAVYYCARGGDITTGFDYWGQGTLVTVSS |
| – | – | 8.27 | 6A12 scFv (scFv) scFv: DIQMTQSPSSLSASVGDRVTITCRASQDVGIYVNWFQQKPGKAPRRLIYRATNLADGVPSRFSGSRSGTDFTLTISSLQPEDFATYYCLQYDAHPLTFGGGTKVEIKDGGGSGGGGSGGGGSSEVQLVESGGGLVQPGGSLRLSCAASGFTFNNYWMTWVRQAPGKGLEWVASIDNSGDNTYYPDSVKDRFTISRDNAKNSLYLQMNSLRAEDTAVYYCARGGDITTGFDYWGQGTLVTVSS |
| – | – | 1.75 | 6E3 scFv (scFv) scFv: DIQMTQSPSSLSASVGDRVTITCRASQDVGIYVNWFQQKPGKAPRRLIYRATNLADGVPSRFSGSRSGTDFTLTISSLQPEDFATYYCLEFDEHPLTFGGGTKVEIKDGGGSGGGGSGGGGSSEVQLVESGGGLVQPGGSLRLSCAASGFTFNNYWMTWVRQAPGKGLEWVASIDNSGDNTYYPDSVKDRFTISRDNAKNSLYLQMNSLRAEDTAVYYCARGGDIRVSLDFWGQGTLVTVSS |
| – | – | 7.35 | 3B7 scFv (scFv) scFv: DIQMTQSPSSLSASVGDRVTITCRASQDVGIYVNWFQQKPGKAPRRLIYRATNLADGVPSRFSGSRSGTDFTLTISSLQPEDFATYYCLQFDSHPLTFGGGTKVEIKDGGGSGGGGSGGGGSSEVQLVESGGGLVQPGGSLRLSCAASGFTFNNYWMTWVRQAPGKGLEWVASIDNSGDNTYYPDSVKDRFTISRDNAKNSLYLQMNSLRAEDTAVYYCARGGDITTGFDYWGQGTLVTVSS |
| – | – | 7.21 | 3E8 scFv (scFv) scFv: DIQMTQSPSSLSASVGDRVTITCRASQDVGIYVNWFQQKPGKAPRRLIYRATNLADGVPSRFSGSRSGTDFTLTISSLQPEDFATYYCLQFDVHPLTFGGGTKVEIKDGGGSGGGGSGGGGSSEVQLVESGGGLVQPGGSLRLSCAASGFTFNNYWMTWVRQAPGKGLEWVASIDNSGDNTYYPDSVKDRFTISRDNAKNSLYLQMNSLRAEDTAVYYCARGGDITTGFDYWGQGTLVTVSS |
| – | – | 6.94 | 6A10 scFv (scFv) scFv: DIQMTQSPSSLSASVGDRVTITCRASQDVGIYVNWFQQKPGKAPRRLIYRATNLADGVPSRFSGSRSGTDFTLTISSLQPEDFATYYCLQFDAHPLTFGGGTKVEIKDGGGSGGGGSGGGGSSEVQLVESGGGLVQPGGSLRLSCAASGFTFNNYWMTWVRQAPGKGLEWVASIDNSGDNTYYPDSVKDRFTISRDNAKNSLYLQMNSLRAEDTAVYYCARGGDITTGFDYWGQGTLVTVSS |
